According to the nanobody polyreactivity screen of Harvey et al. (2022):

Experiment: yeast display, Sf9 membrane polyspecificity reagent, FACS + sequencing; frameworks hold sequencing errors
Outline: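 After 36–48 hours of galactose induction, yeast (Saccharomyces cerevisiae BJ5465) displaying a synthetic nanobody library were stained at 4 °C for 1 hour with 10% biotinylated, detergent-solubilized Sf9 membrane reagent. Streptavidin microbeads enriched the stained cells before FACS sorting into low and high (top ~1%) gates on anti-HA and streptavidin fluorescence. Each clone's polyreactivity label reflects its gate of origin.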

Sequence | polyreactivity (PSR sort gate)
QVQLVESGGGVVQAGGSLGLSCAASGRLFGYYAMGWYRQAPGKERELGAAINYSGGSTYYADSVKGRFTISRDNAKNTVYLQMNSLKPEDTAVYYCNAVRYTLLYYWGQGTQVTVSS | high polyreactivity
QVQLVESGGGLVQAGGSLRLSCAASGIIFYRNAMGWYRQAPGKERELVAAISSRGGNTYYADSVKGRFTISRDNEKNTVYLQMNSLKPEDTAVYYCARDSYSLSRTYDSWGQGTQVTVSS | high polyreactivity
QVHLVESGGGLVQAGVSLRLSCAASGRTVVNAMGWYRQAPGKERELVAAISSNGGRTYYADSVKGRFTISRDNAKHSVYLQMNSLKPEDTAVYYCAAYNTHRYDYWGQGTQVTVSS | high polyreactivity
QGQLVESGGGLVQAGGSLRLSCAASGFTISSYAMGWYRQATGKEREMVAAISSSGSRTSYADSVKVRFTISRDIAKNSVYFQMNSLKPEDTAVYYCAARPGDGGYYYWGQGTQVTVSS | high polyreactivity
QVQLVESVGGLVQAGGSLRLSCAASGDTFTSYAMGRYRQAPGKVRELVAAISRRGGSTYYAESVKGRFTISRDNAKNTVYLLMNSLKPEDTAFYYCAAKSYSYTEFDYGGQGTQVTVSS | high polyreactivity
QVQLVESGVGIVQAGGSLRLSCAASGSTLVYYDMGWYRQAPGKERELVATITGTDSTYYADSVKGRFTISRDNAKNTVYLQMNSLKPEDTADCAADRAGSRPDYDYWGQGTQVTVSS | low polyreactivity
QVQLVESGGGLGQAVGRLRLSCAASGSTFDPNTMGWYRQAPGKERELVATITSVDSTNYADSVKGRFTISRDNAKNTVYLQMNSLKPEDTAVSYCNAAYGGVFFYAYDYWGQGTQVTVSS | low polyreactivity
QVQLVESGGGLVQAGGSLRLSSAASGNTFWHYAMGWYRQAPGKERELVAAITRSTGSTYYADSVKGRFTISRDNAKYSVYLQMNSLKPEDTAVYYCAADFYRHYFRVDSWGQGTQVTVSS | low polyreactivity
QVQLVESGGGLVQAGGSLRLSCAASGSTFAYNTMGWYRQAPGKERELVAAISQRGGSTYADSVKGRFTISRDNAKNTVYLQMNSLKPEVTAVYYCNKRNVYYSYPFDYDYWGQGTQVTVSS | low polyreactivity
QVQLVESGGGLVQAGGSLRLSCAASGSTFYNNAMGWYRQAPGKERELVAVITDSGGRTYYADSVKGRFTISRDNAKNTVYLQMNSLKPEDTAVYYCAVVAPGGGDDYWGQGTQVTVSS | low polyreactivity
QVQLVESGGGLVQAGGSLRLSCAASGLIFVWYDMGWYRQAPGKERELVATISSDGITNYADSVKGLFTISRDNAKNTVYLQMNSLKPEDTAVSYCNAGPDDYVGYWGKYDYWGQGTQVTVSS | low polyreactivity
QVQLVESGGGLVQAGGSLRLSCAASGSTFVQYAMGWYRQAPGKERELVAAITRSGGSTYYADSVKGRFTISRDNAKNTVYLQMNSLKPEDTAVYYCAADFSSSYRAFNYWGQGTQLTVSS | high polyreactivity
QVQLVESGGRLLQAGGSLRLSCAASGYTIDPYDMGWYRQAPGKERELVASISWSGGDTYYADSVKGRFSISRDNAKNTVYLQMNRLKPEDPAVYYCAADPGYAANRTEWRDFDYWGQGTQVTVSS | low polyreactivity
QVQLVESGGGLVQAGGSLRLSCAASGSTFVSYALGWYRQAPGKERDLVAAISRSGGSTYYADSVKGRFTISRDNAKNTVYVQMNRLKPEDTAVFYCAADCRGPSKRNRDYWGQGTEVTVSS | high polyreactivity
QVQHVESGGGLVQAGGSLRLSCAASGNNVMGWYRQAPGKDRELVGAISWSGTSTYADSVKGRFTISRVNAKNTVYLKMNSLKPEDTAVYYCAAEQQGRNYRAYRRYDYWGQGTQVTVSS | low polyreactivity
QVQLVESGGGLVQAGGSLRLSCAASGFSVPLYTMGWYRQAPGKERELVAAISVTGGSTYYADSVKGRFTISRDNAQNTVYLPMNSLKPEDTAVYYCNAYLFFLNRVWSFDYWGQGTQVTVSS | low polyreactivity
QVQLVESGGGLVQAGGSLRLSCAASGRIFYVYAMGWYRQAPGKERELVAAISWSGGGTYYADSVKGRFTISRDNAKNTVYLQMNSLKPEDTAVYYCATVSGVPPGSHDYWGQGTQVTVSS | low polyreactivity
QVQLVESGGGLVQAGGSLRLSCAASGRIFVFYAMGWYRQAPGKERELVAAITASSTRTYYADSVKGRFTISRDNAKNTFYLQMNSLKPEDTAVYYCAADRYYWGQGTQVTVSS | low polyreactivity
QVQLVESGGGLVQAGGSLRLSCAASGLNQANYAMVWYRQAPGQEREMVAAISSSGGSTYYADSVKGRFTISRDNAKNTVYLQMNSLKPEDTAVYYCAAYPLYRRSWTGDYWGQGTQVTVSS | high polyreactivity
QVQLVESGGGLVQAGGSLRLSCAASGSTFYYNAMGWYRQAPGKERELVAAISGSGGSTYYADSVKGRFTISRDNAKNTVYLQMNSLKPEDTAVYYCAALYGPGREYDYWGQGTQVTVSS | low polyreactivity
QVQLVESGGGLVQAGGSLRLSCAASGRTFPYYAMGWYRQAPGKERELVAAISSSGGSTYYADSVKARFTISGDNAKNTVYLQMNSLKPEDTAVYDCTRYSRLYLTDDDYWGQGTQVTVSS | high polyreactivity
QVQLVESGGGLVQAGGSLRLSCAASGIIFTVYAMGWYRQAPGKERELVAAITSSGGRTYYADSVKGRFTISRDNAKNTVYLQMNSLKPEDTAVYYCAASIWLYRYYYWGQGTQVTVSS | high polyreactivity

Sequence | polyreactivity (PSR sort gate)
QVQLVESGGGLVQAGGSLRLSCAASGGTFSVYAMGWYRQAPGKEREFVASITYGGGITYYADSVKGRFTISRDNAKNTVYLQMNSLKPEDTAVYYCAVDRRVLWYDMDYWGQGTQVTVSS | high polyreactivity
QVQLVESGGGLVQAGGSLRLSCAASGSTFGTNAMGWYRQAPGKERELVARINSSASTTYADSVKGRFTISRDNAKNTVYLQMNSLKPEDTAVYYCNADDRHSRVGHSWQDAQFDYWVQGTQVTVSS | high polyreactivity
QVQLVESGGGLVQAGGSLRLSCAASGRTFAAYAMGWYRQAPGKERELVAAIRRGGTTNYADSVKGRFTISRDNAKNTVYLQMNSLKPEDTAVYYCAALAPYSRSWVTYDYWGQGSQVTVSS | low polyreactivity
QVQLVESGGGLVQAGGSLRLSCAASGFIFGRYAMGWYRQSPGKERELVAVISKRGDNTYYADSVKGRFTISRDNAKNTVYLQMNSLKPEDTAVYYCNVKRYGGRSDYWGQGTQVTVSS | high polyreactivity
QVQLVESGGGLVQAGGSLRLSCAASGRIFNFYAMGWYRQAPGKERELVAAITRGGSTYYADSVKGRFTISRDNAKNTVYLQMNSLKPEDTAVYYCNALNRYYDGDYYYWGQGTQVTVSS | high polyreactivity
QVQLVESGGGLDQAGGSLRLSCAASGGIFQKYAMGWYRQAPGQERELVAAISYSTTRTYYADSVKGRFTISRDNAKKTVYLQMNSLKPEDTAVYYCAARGYFWSSYKYDYWGQGTQVTVSS | high polyreactivity
QVQLVYSGGGLVQAGGSLRLSCAASGSTFQAYDMGWYRQAPGKERELVAAITTGGSTNYADSVKGRFTISRDNAKNTVYLQLNSLKPEDTAVYYCNADFIYVLYYVVLYDYWGQGTQVTVSS | low polyreactivity
QVQLQESGGGLVQACGSQRLSCAASGSISEGQDMGWYRRAPGKESEFVAGIAPCATTYYADSVKGRFTISRDNAKNSVYLQMNSLKPEDTAVYYCAARSVTETDHDYWGQCTQVTVSS | low polyreactivity
QVQLVESGGGLVQAGGSLRLSCAASGLTFTLNAMGWYRQAPGKERELVATISQDGGGTTYADSVKGRFTISRDNAKNTVYLQMNSLKPEDTAVYYCATTLPPSVWGEWSGTRYPYDYWGQGTQVTVSS | low polyreactivity
QVQLVESGGGLVQAGGSLRLSCAASGGTFGYNAMGWYRQAPGKERELVAAITGGGRTYYADSVKGRFTISRDNAKNTVYLQMNSLKPEDTAVYYCNADYAYYSYDYWGQGTQVTVSS | low polyreactivity
QVQLGESGGGLVQAGGSLRLSCAASGSIFAYYAMGWYRQAPGKERELVAGISGSGGSTYYADSVKGRFTISRDNAKNTVYLQMNSLKPEDTAVYYCAVDGRRNGDVRYNYWGQGTQVTVSS | high polyreactivity
QVQLVESGGGLVQAGGSLRLSCAASGIIFTDNAMGWYRQAPGKARELVATISWSTDNTYYADSVKGRFTISRDNAKNTVYLQMNSLKPEDTAVYYCAAGWQIIQGSQYDYWGQGTQVTVSS | low polyreactivity
QVQLVESGGGLVQAGGSLRLSCAASGGTFNTYAMGWYRPAPGKERELVAAITSSGGSTFYADSVKWRFTISRDNAKNTVYLQMNSLKPEDTAVYYCAAKSYWTIVYRHPGYYYWGQGTQVTVSS | low polyreactivity
QVQLVESVGALVQAGGSLRLSCAASGSIFIPYAMGWYRQAPGKEWEFVATITFGAASTYYADSVKGRFTISRDNAKNTVYLQMNSLKPEDTAVYYCNAEGYVYPYYREGDYWGQGTQVTVSS | low polyreactivity
QVQLVESGGGLVQAGGSLRLSCAAYGRILSVYAMGWYRQAPGKERELVAAISSTGGTYYADSVKGRFTISRDNAKNTVYLQMNSLKPEDTADYYCAARYSTLTKYYWGQGTQVTVSS | low polyreactivity
QVQLVESGGGLVQAGGSLRLSCAASGRTFAIYAMGWYRQAPGKERELVAAISGSGGSTYYADSVKGRFTISRDNAKNTVYLQMNSLKPEDTAVYYCAKRVRGHRYDYWGQGTQVTVSS | high polyreactivity
QVQLVESGGGLVQAGGSLRLSCAASGRIFYVNAMAWYRQAPGTEREFVAAIRVDGASTYYADSVKGRFTFSRDNAKNTVYLQMNSLKPEDTAVYYCAARTRSYWSTTYYYWGQGTEVTVSS | high polyreactivity
QVQLVESGGGLVQAGGRLLLSCAASGFTFPRYVMGWYRQAPGKEREFVAAITFSGGSTYYADSVKGRFTISRDNAKNSVYLQMNSLKPEDTAVYYCAAGASLWRLGLKMGYWGQGTQVTVSS | low polyreactivity
QVQLVESGGGLVQAGGSLSLSCAASGSTFVINAMGWYRPAPRKERELLAAIRGRCVSTSYADSVKGRFTISRDIAKNTVYLQMNSLKPEDTEVYYCAADSRTGYYYWGQGTQVTVSS | high polyreactivity
QVQLVESGGGLVQAGCSLRLSCAASGITFVYYAMGRYRQAAGKERELVAAITTGGSTNYADSVKGRFTISRDNAKYTVYLQMNSLKPEDTAVYYCNKRPVILYDYWGQGTQVTVSS | low polyreactivity
QVQLVESGGGLVQAGVSLRLSCAASGSTFGANAMGWYRQAPGKEREFVAAISGSGTTTYYADSVKGRFTISRDNAKNTVYLQMNSLKPEDTAVYYCAKTRKAHWLEYWGQGTQVTVSS | low polyreactivity
